Reference: patent publication US20210388105A1 (ELPISCIENCE SUZHOU BIOPHARMA, published 2021)
Numbering of substitutions follows the chain as printed. “And” between values parts separate entries of the source, which are not always exact repeats. Identical values can stand only once. Like-named read-outs stand apart in the source and are kept apart here. Values belong to the binder of their own block, whether it stands above or below them.

Columns and labels:
[1] = target: T1, human CD39 (full length, on cells) (human, UniProt P49961 1-510); test: FACS, MOLP-8 cells
T1 construct: Recombinant on CHOK1-hCD39 cells or natural on SK-MEL-28, SK-MEL-5 and MOLP-8 cells; the cell line is named under assay; also called hCD39; ENTPD1
T1 sequence: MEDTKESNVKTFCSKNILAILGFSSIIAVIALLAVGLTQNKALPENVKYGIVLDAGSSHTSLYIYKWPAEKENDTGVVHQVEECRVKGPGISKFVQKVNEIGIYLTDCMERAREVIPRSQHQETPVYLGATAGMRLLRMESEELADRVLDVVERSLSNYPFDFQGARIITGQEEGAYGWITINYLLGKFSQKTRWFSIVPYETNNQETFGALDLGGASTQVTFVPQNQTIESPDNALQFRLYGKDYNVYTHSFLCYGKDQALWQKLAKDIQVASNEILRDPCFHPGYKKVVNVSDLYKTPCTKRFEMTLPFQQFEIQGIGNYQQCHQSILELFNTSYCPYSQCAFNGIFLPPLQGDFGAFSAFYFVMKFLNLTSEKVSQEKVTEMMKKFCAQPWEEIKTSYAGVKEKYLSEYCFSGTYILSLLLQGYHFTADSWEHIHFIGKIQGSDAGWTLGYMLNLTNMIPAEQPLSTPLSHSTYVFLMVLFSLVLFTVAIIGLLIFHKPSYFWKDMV
Method: (§1) Similarly, human CD39 expressing cells SK-MEL-5, SK-MEL-28 or MOLP-8, were incubated with a gradient concentration of anti-CD39 antibodies for 30 minutes at 4° C. Cells were washed 3 times using FACS buffer and next incubated with fluorescence labelled secondary antibody (goat-anti-mouse IgG or goat anti-human IgG) for 30 minutes at 4° C. Cells were washed 3 times and then re-suspended in FACS buffer and analyzed by flow cytometry analysis on BD Celesta. Data plotted and analyzed using GraphPad Prism 8.02.
(§2) The binding affinity of the humanized antibodies for c23 was determined by FACS, using similar methods as described in Example 3.2. The c23 humanized antibody clones showing good binding affinity are listed in below Table 19 and Table 20, and also shown in FIGS. 7A, 7B and FIG. 8. EC₅₀ is the concentration of the indicated antibodies to reach 50% of the signal in this assay.

[2] = target: T1, human CD39 (full length, on cells); test: cell-based or functional assay
[3] = target: T2, 6×His tagged human CD39 (human, UniProt P49961 38-478); test: Biacore SPR, antibody captured on CM5 chip, His-tagged CD39 as analyte
T2 construct: Analyte in the Biacore assay
T2 sequence: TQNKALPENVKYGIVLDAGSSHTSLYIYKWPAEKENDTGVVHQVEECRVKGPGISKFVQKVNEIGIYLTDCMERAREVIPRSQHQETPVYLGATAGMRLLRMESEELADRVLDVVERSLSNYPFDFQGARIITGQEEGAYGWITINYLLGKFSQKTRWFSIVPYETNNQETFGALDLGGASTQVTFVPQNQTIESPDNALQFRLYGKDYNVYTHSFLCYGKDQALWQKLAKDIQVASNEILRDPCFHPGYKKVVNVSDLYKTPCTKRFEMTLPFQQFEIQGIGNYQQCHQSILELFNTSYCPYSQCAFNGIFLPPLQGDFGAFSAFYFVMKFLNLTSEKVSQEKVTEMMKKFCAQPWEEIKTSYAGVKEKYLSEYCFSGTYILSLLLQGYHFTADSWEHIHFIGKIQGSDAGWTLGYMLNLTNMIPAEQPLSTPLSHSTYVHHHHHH
Method: In particular, humanized antibodies hu23.H5L5, hu23.201, hu14.H1L1 and reference antibodies 1394 and T895 were characterized for binding affinity against human CD39 using Biacore (GE). Briefly the antibodies to be tested were captured to CM5 chip (GE) using Human Antibody Capture Kit (GE). The antigen of 6×His tagged human CD39 was serially diluted for multiple doses and injected at 30 μl/min for 180s. Buffer flow was maintained for dissociation of 400s. 3 M MgCl2 was used for chip regeneration. The association and dissociation curves were fit with 1:1 binding model, and the Ka/Kd/KD values for each antibody were calculated.

[4] = target: T1, human CD39 (full length, on cells); test: FACS, MOLP-8 cells; remark: listed apart in the source
Method: as §1
(§3) The binding affinity of the humanized antibodies for c14 was determined by FACS using MOLP-8 cells expressing human CD39, using similar methods as described in Example 3.2.

[5] = target: T1, human CD39 (full length, on cells); test: FACS, MOLP-8 cells; remark: listed apart in the source
Method: as §1, §2

[6] = target: T1, human CD39 (full length, on cells); test: FACS on MOLP-8 cells, MFI
Method: as §1, §3

EC50 [1]: 0.429 nM | ATPase inhibition IC50 on SK-MEL-28 cells [2]: 0.32 nM
B1: hu23.203 (antibody, V domains shown)
VH: QVQLVQSGAEVKKPGASVKVSCKASGYTLKDTFLHWVRQAPGQRLEWMGRIDPANGNIKYDPKFQGRVTLTADTSSNTAYMELSSLRSEDTAVYYCANSPYYYGSGYRIFDVWGQGTLVTVSS
VL: EIVLTQSPATLTLSPGERATLSCSAFSSVNYMHWYQQKPGQAPRLLIYTTSNLASGIPARFSGSGSGTDYTLTISSLEPEDFAVYYCQQRSTYPFTFGQGTKLEIK
notes: humanized c23 by yeast display

EC50 [1]: 2.25 nM
B2: hu23.207 (antibody, V domains shown)
VH: B1 VH with Q1E, R50K
VL: B1 VL with T12S, A42S
notes: as for B1

EC50 [1]: 1.29 nM | ATPase inhibition IC50 on SK-MEL-28 cells [2]: 0.264 nM | Kd [3]: 24 nM | koff [3]: 0.00162 s⁻¹ | kon [3]: 67500 M⁻¹ s⁻¹
B3: hu23.201 (antibody, V domains shown)
VH: B1 VH
VL: B1 VL with T12S, A42S
notes: as for B1

EC50 [1]: 1.56 nM | ATPase inhibition IC50 on SK-MEL-28 cells [2]: 0.386 nM
B4: hu23.211 (antibody, V domains shown)
VH: B1 VH with Q1E, L70I
VL: B1 VL with T12S
notes: as for B1

EC50 [4]: 17.5 nM
B5: c14 (antibody, V domains shown)
VH: EVKLEESGGGLVQPGGSMKLSCVASGFTFSKYWMNWVRQSPEKGLEWVAEIRLKSNKYGTHYAESVKGRFTISRDDSKNNVYLQMNNLRPEDTGIYYCTTQLDLYWFFDVWGAGTTVTVSS
VL: DIVMTQSPAILSVTPGDRVSLSCRASQSISDYLHWYQQKSHESPRLLIKYASQSISGIPSRFSGSGSGSNFTLSINSVEPEDVGVYFCQNGHSLPLTFGAGTKLELR
notes: variable regions of mAb14 on human IgG constant regions; also called chimeric antibody c14

EC50 [1]: 1.28 nM | ATPase inhibition IC50 on SK-MEL-28 cells [2]: 0.158 nM and 0.209 nM | EC50 [5]: 1.03 nM and 0.397 nM
B6: c23 (antibody, V domains shown)
VH: EVQLQQSGAELLRPGASVKLSCTASGYNLKDTFLHWVKQRPEQGLEWIGRIDPANGNIKYDPKFQGKATLTADTSSNTAYLQLISLTSEDTAVYYCANSPYYYGSGYRIFDVWGAGTTVTVSS
VL: QIVLTQSPAIMSASPGEKVTITCSAFSSVNYMHWYQQKPGTSPKLLIYTTSNLASGVPTRFSGSGSGTSYSLTISRMEAEDAATYYCQQRSTYPFTFGSGTKLEIQ
notes: variable regions of mAb23 on human IgG constant regions; also called chimeric antibody c23

EC50 [4]: 6.91 nM
B7: hu14.H2L2 (antibody, V domains shown)
VH: EVQLVESGGGLVKPGGSLRLSCAASGFTFSKYWMNWVRQSPGKGLEWVGEIRLKSNKYGTHYAESVKGRFTISRDDSKNTLYLQMNSLKTEDTAVYYCTTQLDLYWFFDVWGQGTTVTVSS
VL: EIVLTQSPATLSLSPGERATLSCRASQSISDYLHWYQQKPGQSPRLLIYYASQSISGIPARFSGSGSGTDFTLTISSLEPEDFAVYFCQNGHSLPLTFGGGTKLEIK
notes: humanized c14

binding result [6]: binds
B8: hu14.H4L2 (antibody, V domains shown)
VH: B7 VH with L18M, G49A, L81V
VL: B7 VL
notes: humanized c14

EC50 [4]: 5.95 nM
B9: hu14.H3L1 (antibody, V domains shown)
VH: B7 VH with G49A, L81V
VL: B7 VL with S43A, F87Y
notes: humanized c14

EC50 [4]: 6.05 nM
B10: hu14.H3L4 (antibody, V domains shown)
VH: B7 VH with G49A, L81V
VL: B7 VL with L4M, L13V, A19V, L78V
notes: humanized c14

binding result [6]: binds
B11: hu14.H3L2 (antibody, V domains shown)
VH: B7 VH with G49A, L81V
VL: B7 VL
notes: humanized c14

EC50 [4]: 5.46 nM
B12: hu14.H4L4 (antibody, V domains shown)
VH: B7 VH with L18M, G49A, L81V
VL: B7 VL with L4M, L13V, A19V, L78V
notes: humanized c14

EC50 [4]: 6.09 nM
B13: hu14.H3L3 (antibody, V domains shown)
VH: B7 VH with G49A, L81V
VL: B7 VL with L13V, L78V
notes: humanized c14
